Molecular target: T1, full length human TRAIL receptor (TRAIL-R) (human, UniProt O14763 56-440)
T1 construct: The signal peptide is only predicted (residues 1-51)
Test: flow cytometry on transfected CV-1/EBNA cells, LZ-TRAIL at 5 µg/ml
Experimental: CV-1/EBNA cells were co-transfected with pDC409-TRAIL-R together with pDC409-CrmA, or with pDC409-CrmA alone. The cells were cultured in DMEM supplemented with 10% fetal bovine serum, penicillin, streptomycin, and glutamine. […] The cytometric analysis was conducted on a FACscan (Beckton Dickinson, San Jose, Calif.).

B1: LZ-TRAIL (leucine zipper peptide fused to the N-terminus of a soluble human TRAIL polypeptide) (ligand, UniProt P50591 95-281, looked up)
chain: TSEETISTVQEKQQNISPLVRERGPQRVAAHITGTRGRSNTLSSPNSKNEKALGRKINSWESSRSGHSFLSNLHLRNGELVIHEKGFYYIYSQTYFRFQEEIKENTKNDKQMVQYIYKYTSYPDPILLMKSARNSCWSKDAEYGLYSIYQGGIFELKENDRIFVSVTNEHLIDMDHEASFFGAFLVG
notes: range 95-281; also called LZ-huTRAIL; not shown: modified leucine zipper that allows for trimerization
  binding result: binds

From patent US20100015137A1 (IMMUNEX, published 2010)
